Paper doi:10.1101/2021.09.16.460654

Molecular target: S. aureus FakA (S. aureus)

FakB1(A121I) (from UniProt X5EH37 1-288) (natural protein)
apparent KM for FakB1(A121I) in the FA kinase assay (0.2 µM FakA, [14C]16:0): 0.1 µM

FakB1(A158L) (from UniProt X5EH37 1-288) (natural protein)
apparent KM for FakB1(A158L) in the FA kinase assay (0.2 µM FakA, [14C]16:0): 0.13 µM

S. aureus wild-type FakB1 (from UniProt X5EH37 1-288) (natural protein)
apparent KM for FakB1 in the FA kinase assay (0.2 µM FakA, [14C]16:0): 0.13 µM
